In patent US20200223912A1:

How the values were obtained:
[1] = target: human Tau(pS422) fragment (residues 416 to 430 with phosphorylated serine 422) (human); experiment: ELISA, coated antigen
[2] = target: human Tau(pS422) fragment (residues 416 to 430 with phosphorylated serine 422) (human); experiment: ELISA, ratio of EC50 values
[3] = target: human Tau(pS422) fragment (residues 416 to 430 with phosphorylated serine 422) (human); experiment: ELISA, biotinylated peptide on streptavidin plate

EC50 [1] [ng/mL]	selectivity over non-phosphorylated Tau peptide [2] [fold]	EC50 [3] [ng/mL]	Binder
4.4			VH32/VL21 (antibody, V domains shown) VH: EVQVLESGGGLVQPGGSLRLSCAVSGFSLSSNAINWVRQAPGKGLEWVGYIAVSGNTYYASWAKGRFTISRDNSKNTVYLQMNSLRAEDTAVYYCGKSNIWGQGTLVTVSS VL: AQVMTQSPSSLSASVGDRVTITCRSSQSVRTNKLAWFQQKPGQPPKRLIYSASTLDFGVPSRFSGSGSGTEFTLTISSLQPEDFATYYCLGYFDSSADIVAFGGGTKVEIK
6.3	> 100	1.1	rabbit antibody Mab 086 (VH00/VL00) (antibody, V domains shown) VH: QSVEESGGRLVTPGTPLTLTCTVSGFSLSSNAINWVRQAPGKGLEWIGYIAVSGNTYYASWAKGRFTISKASTTVDLKMTSPTAEDTGTYFCGKSNIWGPGTLVTVSL VL: AQVLTQTTSPVSAAVGSTVTISCQSSQSVRTNKLAWFQQKPGQPPKRLIYSASTLDFGVPSRFSASGSGTQFTLTISDVQCDDAATYYCLGYFDCSIADCVAFGGGTEVVVK
